Molecular target: Crp (CRP, cAMP receptor protein) (Escherichia coli (purified from strain …, UniProt P0ACJ8 1-210))
Assay: EMSA; 20 uM cAMP; 12 ng Crp, 50 ng probe; 10 mM Tris-HCl pH 7.5, 1 mM EDTA, 100 mM KCl, 1 mM DTT, BSA (printed 10 g/mL), 5% glycerol, 20 uM cAMP, room temperature 30 min; 6% native PAGE, 1x TAE, 4 C
Settings: protein: recombinant; tags: none (native His residues used for Ni-NTA); chain copies: 2; label: 5'-TAMRA on strand 2 (primer P11); blunt

Sequence of Crp (CRP, cAMP receptor protein) (Escherichia coli (P0ACJ8 whole entry): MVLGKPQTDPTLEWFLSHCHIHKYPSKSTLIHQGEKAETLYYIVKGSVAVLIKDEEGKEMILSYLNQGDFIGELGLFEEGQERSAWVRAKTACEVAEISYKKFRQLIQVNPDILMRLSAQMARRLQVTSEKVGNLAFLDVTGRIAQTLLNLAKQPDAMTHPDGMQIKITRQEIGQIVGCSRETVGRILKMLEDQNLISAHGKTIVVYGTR

B1: PcycA fragment 2 (73 bp) (dsDNA)
DNA 1: CAAAGACCCCGTAAGCGTGTATTTTTGTGAGCTGTTTCGCGTTATCACCGTGATATGACACTCACTTTAAACA
DNA 2: TGTTTAAAGTGAGTGTCATATCACGGTGATAACGCGAAACAGCTCACAAAAATACACGCTTACGGGGTCTTTG
binding result: binds
